The text below walks through data of patent US20210032308A1 (published 2021).

This assay concerns the target T1, recombinant human CD2 (biotinylated) (human, UniProt P06729 25-209, biotinylated (site not stated)).
T1 construct: also called hCD2-biotin; human recombinant CD2
T1 sequence: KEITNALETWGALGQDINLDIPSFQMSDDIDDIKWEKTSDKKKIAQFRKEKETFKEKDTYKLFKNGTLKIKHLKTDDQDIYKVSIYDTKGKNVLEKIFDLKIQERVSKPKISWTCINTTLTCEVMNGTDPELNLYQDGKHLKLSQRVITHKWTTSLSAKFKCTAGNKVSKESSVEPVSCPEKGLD
In words: flow cytometry on LFA3-displaying yeast. (Flow cytometry measures light scatter and fluorescence of single cells or particles in a stream.)

B1: N-terminal Ig-domain of human LFA3 (Residues 1-93) displayed on the surface of S. cerevisiae (ligand, not shown: small tags and cut ends; large carriers)
chain: FSQQIYGVVYGNVTFHVPSNVPLKEVLWKKQKDKVAELENSEFRAFSSFKNRVYLDTVSGSLTIYNLTSSDEDEYEMESPNITDTMKFFLYVL
With B1, the binding result was “binds”.
